The source of these data is the supplement of paper PMC10567573.

B1: ANKRD40 (parent)
chain: VRIQNPSLRENDFIEIELDRQELT
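Note: lentivirally expressed fusions sorted by FACS into six bins by GFP to DsRed ratio, PSI derived from sequencing read proportions per bin multiplied by bin number.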

Variants of B1 are the subject of this data set. Description: protein stability index of a GFP-peptide fusion (GPS, HEK-293T) (PSI 1-6); higher = more stable. As to conditions: c terminus: a fixed tail appended.
As to VRIQNPSLRENDFIEIELDRQEET [L23E], the protein stability index stood at 4.27.
Next, VRIQNPSLRENDFIEIELDRQEAT [L23A]: 3.58; VRIQNPSLRENDFIEIELDRQECT [L23C]: 2.8; VRIQNPSLRENDFIEIELDRQEKT [L23K]: 3.69.
The figure for VRIQNPSLRENDFIEIELDRQEGT [L23G] is 3.99; for VRIQNPSLRENDFIEIELDRQEYT [L23Y] it is 2.48; for VRIQNPSLRENDFIEIELDRQEHT [L23H] it is 3.92.
Next, VRIQNPSLRENDFIEIELDRQERT [L23R]: 3.73; VRIQNPSLRENDFIEIELDRQETT [L23T]: 3.52.
VRIQNPSLRENDFIEIELDRQEST [L23S]: the protein stability index is 3.89.
The figure for VRIQNPSLRENDFIEIELDRQEPT [L23P] is 3.26; for VRIQNPSLRENDFIEIELDRQEFT [L23F] it is 2.07.
The figure for VRIQNPSLRENDFIEIELDRQENT [L23N] is 3.69; for VRIQNPSLRENDFIEIELDRQEQT [L23Q] it is 3.44.
The figure for VRIQNPSLRENDFIEIELDRQEIT [L23I] is 2.45; for VRIQNPSLRENDFIEIELDRQEWT [L23W] it is 2.42; for VRIQNPSLRENDFIEIELDRQEVT [L23V] it is 2.95.
Consider VRIQNPSLRENDFIEIELDRQEDT [L23D], for which the protein stability index worked out at 4.25.
Next, VRIQNPSLRENDFIEIELDRQEMT [L23M]: 2.77.
The figure for VRIQNPSLRENDFIEIELDRQGLT [E22G] is 1.92; for VRIQNPSLRENDFIEIELDRQCLT [E22C] it is 1.68; for VRIQNPSLRENDFIEIELDRQLLT [E22L] it is 2.61.
As for VRIQNPSLRENDFIEIELDRQKLT [E22K], the protein stability index amounted to 2.28.
The figure for VRIQNPSLRENDFIEIELDRQYLT [E22Y] is 2.37; for VRIQNPSLRENDFIEIELDRQRLT [E22R] it is 2.65.
The figure for VRIQNPSLRENDFIEIELDRQNLT [E22N] is 2.34; for VRIQNPSLRENDFIEIELDRQFLT [E22F] it is 2.47; for VRIQNPSLRENDFIEIELDRQILT [E22I] it is 2.73.
The figure for VRIQNPSLRENDFIEIELDRQWLT [E22W] is 1.82.
Take VRIQNPSLRENDFIEIELDRQALT [E22A]: the protein stability index worked out at 2.36.
Next, VRIQNPSLRENDFIEIELDRQQLT [E22Q]: 1.86; VRIQNPSLRENDFIEIELDRQPLT [E22P]: 2.34; VRIQNPSLRENDFIEIELDRQHLT [E22H]: 2.57.
The figure for VRIQNPSLRENDFIEIELDRQVLT [E22V] is 2.1; for VRIQNPSLRENDFIEIELDRQDLT [E22D] it is 2.87; for VRIQNPSLRENDFIEIELDRQSLT [E22S] it is 2.1.
Next, VRIQNPSLRENDFIEIELDRQTLT [E22T]: 2.06; VRIQNPSLRENDFIEIELDRQMLT [E22M]: 1.93.
As to VRIQNPSLRENDFIEIELDRQELP [T24P], the protein stability index stood at 2.49.
Next, VRIQNPSLRENDFIEIELDRQELH [T24H]: 2.63; VRIQNPSLRENDFIEIELDRQELE [T24E]: 3.16.
As to VRIQNPSLRENDFIEIELDRQELA [T24A], the protein stability index came to 2.3.
Next, VRIQNPSLRENDFIEIELDRQELG [T24G]: 2.92.
The figure for VRIQNPSLRENDFIEIELDRQELI [T24I] is 2.19.
Take VRIQNPSLRENDFIEIELDRQELW [T24W]: the protein stability index stood at 1.73.
Next, VRIQNPSLRENDFIEIELDRQELV [T24V]: 2.2; VRIQNPSLRENDFIEIELDRQELF [T24F]: 1.88; VRIQNPSLRENDFIEIELDRQELK [T24K]: 2.3.
The figure for VRIQNPSLRENDFIEIELDRQELS [T24S] is 2.85; for VRIQNPSLRENDFIEIELDRQELM [T24M] it is 2.19.
Regarding VRIQNPSLRENDFIEIELDRQELN [T24N], the protein stability index was 2.48.
Regarding VRIQNPSLRENDFIEIELDRQELC [T24C], the protein stability index turned out to be 2.14.
The figure for VRIQNPSLRENDFIEIELDRQELY [T24Y] is 1.59; for VRIQNPSLRENDFIEIELDRQELQ [T24Q] it is 3.03; for VRIQNPSLRENDFIEIELDRQELL [T24L] it is 2.09.
The figure for VRIQNPSLRENDFIEIELDRQELD [T24D] is 3.24.
On to VRIQNPSLRENDFIEIELDRQELR [T24R], for which the protein stability index was 2.79.
Next, VRIQNPSLRENDFIEIELDFQELT [R20F]: 2.96; VRIQNPSLRENDFIEIELDDQELT [R20D]: 2.75; VRIQNPSLRENDFIEIELDYQELT [R20Y]: 1.84.
Next, VRIQNPSLRENDFIEIELDLQELT [R20L]: 2.81.
Next, VRIQNPSLRENDFIEIELDMQELT [R20M]: 2.92; VRIQNPSLRENDFIEIELDNQELT [R20N]: 2.77; VRIQNPSLRENDFIEIELDSQELT [R20S]: 2.08.
In the case of VRIQNPSLRENDFIEIELDCQELT [R20C], the protein stability index amounted to 2.12.
The figure for VRIQNPSLRENDFIEIELDHQELT [R20H] is 2.32; for VRIQNPSLRENDFIEIELDQQELT [R20Q] it is 2.57.
Next, VRIQNPSLRENDFIEIELDKQELT [R20K]: 2.75; VRIQNPSLRENDFIEIELDAQELT [R20A]: 2.31.
The figure for VRIQNPSLRENDFIEIELDWQELT [R20W] is 1.48; for VRIQNPSLRENDFIEIELDIQELT [R20I] it is 2.82.
Turning to VRIQNPSLRENDFIEIELDPQELT [R20P], the protein stability index is 1.76.
VRIQNPSLRENDFIEIELDEQELT [R20E]: the protein stability index amounted to 2.42.
Turning to VRIQNPSLRENDFIEIELDTQELT [R20T], the protein stability index was 1.78.
Next, VRIQNPSLRENDFIEIELDGQELT [R20G]: 2.56; VRIQNPSLRENDFIEIELDVQELT [R20V]: 2.29; VRIQNPSLRENDFIEIERDRQELT [L18R]: 4.37.
The figure for VRIQNPSLRENDFIEIEYDRQELT [L18Y] is 3.03; for VRIQNPSLRENDFIEIETDRQELT [L18T] it is 4.51; for VRIQNPSLRENDFIEIEWDRQELT [L18W] it is 1.82.
Regarding VRIQNPSLRENDFIEIEVDRQELT [L18V], the protein stability index worked out at 2.85.
Next, VRIQNPSLRENDFIEIEQDRQELT [L18Q]: 4.7; VRIQNPSLRENDFIEIESDRQELT [L18S]: 4.81; VRIQNPSLRENDFIEIELWRQELT [D19W]: 1.54.
Next, VRIQNPSLRENDFIEIELHRQELT [D19H]: 1.69.
Next, VRIQNPSLRENDFIEIELERQELT [D19E]: 2.8; VRIQNPSLRENDFIEIELNRQELT [D19N]: 1.94; VRIQNPSLRENDFIEIELIRQELT [D19I]: 1.91.
As to VRIQNPSLRENDFIEIELLRQELT [D19L], the protein stability index was 2.22.
Next, VRIQNPSLRENDFIEIELARQELT [D19A]: 1.93.
Turning to VRIQNPSLRENDFIEIELRRQELT [D19R], the protein stability index is 2.41.
Consider VRIQNPSLRENDFIEIELQRQELT [D19Q], for which the protein stability index came to 2.42.
As for VRIQNPSLRENDFIEIELPRQELT [D19P], the protein stability index is 2.65.
The figure for VRIQNPSLRENDFIEIELYRQELT [D19Y] is 1.83.
